The source of these data is the supplement of paper PMC10567573.

This data set is described as follows: protein stability index of a GFP-peptide fusion (GPS, HEK-293T) (PSI 1-6); higher = more stable.
The mark [1] stands for this setting: treatment: DMSO, c terminus: a fixed tail appended.
Where [2] appears, read: treatment: MLN4924 1 uM, 8 h, c terminus: a fixed tail appended.
Where [3] appears, read: treatment: DMSO, c terminus: native.
Where [4] appears, read: treatment: MLN4924 1 uM, 8 h, c terminus: native.

± gives the standard deviation.
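Note: 24-mer peptide tiles fused after GFP, lentivirally expressed, FACS-sorted into six equal bins by GFP/DsRed ratio, decoded by Illumina sequencing, PSI is the read-weighted mean bin number.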

Regarding SIQKLSNESRYMIYEFWENSSVWN [NECAB1], the protein stability index under setting [1] amounted to 2.15 ± 0.45 and the protein stability index under setting [2] amounted to 2.01 ± 0.3. On to SIQMNVAEVSWEPGRREGCDICAG [RPS21], for which the protein stability index by setting is: under setting [1], 2.7 ± 0.92; under setting [2], 3.35 ± 1.3.

SKDNMRTRIMIGLTLVFFVQITGQ [SLC2A12]: the protein stability index is, setting by setting: under setting [1], 2.55 ± 0.6; under setting [2], 3.4 ± 0.17. Taken in the same sequence, the figures for SKGMQDFNYLHTNCFEITLELSCD [CPN1] were 2.97 ± 0.48 and 2.72 ± 0.58. The like results for SLASQVHAAAVNGDKGALQRLIVG [INVS] were, in that order, 3.02 ± 0.22 and 3.19 ± 0.29. Consider SLGGCSQDFLLFSPEVESLPVASS [NFE2L1], for which the protein stability index came to 2.49 ± 0.52 under setting [1] and 2.74 ± 0.24 under setting [2]. For SLIEDSQALHKRPKLDSEYYCFG [LURAP1L], the protein stability index under setting [3] amounted to 2.57 ± 0.4 and the protein stability index under setting [4] was determined as 3.11 ± 0.45. Regarding SLPLQDELAFAEDLVLDEEGARAA [ESRRA], the protein stability index runs as follows: under setting [1], 3.52 ± 0.68; under setting [2], 4.31 ± 0.58.

Regarding SLRFNGRVLFIKDVIGDEICCWSF [KCTD10], the protein stability index reads like this: under setting [1], 2.65 ± 0.49; under setting [2], 2.42 ± 0.45. The sequence SLRKAIETVYAAYLPKNTHPFLYL [MLH1] gave a protein stability index under setting [1] of 3.76 ± 0.68. SLSKKYRQDAKYLNMRSTYAKLAA [SEC22B] yielded a protein stability index under setting [1] of 2.56 ± 0.24 and a protein stability index under setting [2] of 2.62 ± 0.073. Taken in the same sequence, the figures for SNEQLKVTQEPRAKKGRRNQSVEP [ZMYND11] were 5.2 ± 0.32 and 5.12 ± 0.44. The like results for SNYFSMDSMEGKRSPYAGLQLGAA [TRIM29] were, in that order, 2.88 ± 0.3 and 2.99 ± 0.22. The like results for SPAEDFVLVAETTMARIRRVYVSG [APMAP] were, in that order, 2.22 ± 0.29 and 2.05 ± 0.42.

The sequence SPEPPSLYGALNPQYEFKEAAGSF [IRX6] registered a protein stability index under setting [1] of 3.47 ± 0.24 and a protein stability index under setting [2] of 3.6 ± 0.22.

As to SPEVLTPQLSPGSGTPQAGTPSPS [RTN2], the protein stability index turned out to be 5.39 ± 0.31 under setting [1] and 5.45 ± 0.2 under setting [2]. Taken in the same sequence, the figures for SPGLSYASHTVGFTPPTSLTRAGM [CCDC6] were 3.01 ± 0.12 and 3.37 ± 0.31. The like results for SPRLTFQCLEDLVNHYSEVADGLC [SLA] were, in that order, 2.79 ± 0.45 and 3.19 ± 0.54.

Consider SPSEKNSSFTWSVPSSGYGAVTAS [SMTNL2], for which the protein stability index is, setting by setting: under setting [1], 3.65 ± 0.18; under setting [2], 3.74 ± 0.073. Taken in the same sequence, the figures for SPTSGSPRGSHSSALERLETKLHL [LURAP1L] were 3.64 ± 0.4 and 3.94 ± 0.36. As to SPVTTSPTAATTQNPVLSKLLMAD [LCOR], the protein stability index was determined as 4.536 ± 0.031 under setting [1] and 4.44 ± 0.081 under setting [2]. Consider SPVVVEKSNSYPHQLYTSSSHHSH [KMT2E], for which the protein stability index is, setting by setting: under setting [1], 3.76 ± 0.1; under setting [2], 3.82 ± 0.38.

Sequence SQDLLPPPNPYPLPQEHSQIYHCT [TBX5] showed a protein stability index under setting [1] of 4.02 ± 0.22 and a protein stability index under setting [2] of 4.11 ± 0.22.

As to SQMSPLSLYGENSNSLSSAEPLKE [ATF6], the protein stability index is, setting by setting: under setting [1], 5.01 ± 0.3; under setting [2], 5.03 ± 0.22.

For SQTEAHYSCQSKEILRYMKEFTLL [P2RY14], the protein stability index is 2.21 ± 0.15 under setting [1] and 2.3 ± 0.23 under setting [2]. The like results for SQTPILQALQHVQASCDEAHKMKF [INTS3] were, in that order, 3.88 ± 0.14 and 3.93 ± 0.21.

Turning to SRQDKPLSPAGSSQEAADTPDTRH [YJU2B], the protein stability index is 5.56 ± 0.14 under setting [1] and 5.46 ± 0.13 under setting [2].

As to SSAAMQSSCSSTSGGGGGGGGGGG [CCDC6], the protein stability index came out at 5.2 ± 0.49 under setting [1] and 5.16 ± 0.19 under setting [2]. The sequence SSEEGWRLFKIDKEYLLKMATEE [SAT1] showed a protein stability index under setting [3] of 2.78 ± 0.62 and a protein stability index under setting [4] of 2.88 ± 0.68. With SSFPGSLPQETNLTLKVCKPQAPQ, the protein stability index came to 4.09 ± 0.21 under setting [1] and 4.14 ± 0.38 under setting [2]. SSPGNNNGTSIEDGQIPEIIFYT [BTBD1] showed a protein stability index under setting [3] of 3.14 ± 0.46 and a protein stability index under setting [4] of 3.44 ± 0.56. On to SSSINSPDRASGPEGSLSQTMAGS [FAM104A], for which the protein stability index reads like this: under setting [1], 5 ± 0.16; under setting [2], 5.04 ± 0.1. SSVYKQQWFAMLRAEQDSEVGPQE [GMCL1]: the protein stability index reads like this: under setting [1], 4.08 ± 0.37; under setting [2], 4.16 ± 0.24. For SSWKHGSGTQYVSTRQTQSWTAVT [C18orf25], the protein stability index under setting [1] came out at 2.5 ± 0.11 and the protein stability index under setting [2] came out at 2.52 ± 0.47. The like results for STQEPQSPREGEELKPEDKDPRDP [GNAS] were, in that order, 5.59 ± 0.34 and 5.42 ± 0.48.

For STRVCLQPIRGVEGSDYINASFID [PTPRD], the protein stability index reads like this: under setting [1], 3.18 ± 0.29; under setting [2], 3.25 ± 0.41. In the case of SVGTYIIDLLTFLTGQKAVKVHGL [GFOD1], the protein stability index turned out to be 3.23 ± 0.42 under setting [1] and 3.32 ± 0.54 under setting [2]. The like results for SVLQSVWMEVLVLGVAQRSLPLQD [ESRRA] were, in that order, 3.62 ± 0.79 and 3.38 ± 0.57.

In the case of SWFDNGSICMRMEILGCPLPDPNN [CPXM2], the protein stability index by setting is: under setting [1], 2.09 ± 0.089; under setting [2], 2.3 ± 0.47. For SWIQLPPMQERRASFYACRLDKHL [KLHL14], the protein stability index worked out at 2.32 ± 0.29 under setting [1] and 2.26 ± 0.34 under setting [2]. Take SWLTRRAIRPENRAPGAGLGQDRQ [EMD]: the protein stability index runs as follows: under setting [1], 3.98 ± 0.27; under setting [2], 4.05 ± 0.19.

Take SYDVALHRTRLQDLRVLVSNASED [SCARA5]: the protein stability index is 3.77 ± 0.18 under setting [1] and 3.93 ± 0.27 under setting [2]. For TAEDAELSDFEECEETGELFEEPA [FCHSD1], the protein stability index is 5.58 ± 0.24 under setting [1] and 5.5 ± 0.28 under setting [2]. Take TAEDSNDIYILPSDNSGQVSPPES [BCL2L13]: the protein stability index runs as follows: under setting [1], 5.2 ± 0.26; under setting [2], 5.21 ± 0.1. The like results for TCRNPACGPQWEMSEWSECTAKCG [ADAMTSL2] were, in that order, 3.28 ± 0.29 and 3.93 ± 0.53.

In the case of TDKLVTPGKYFSAAEYHAQRLKAV [IQUB], the protein stability index under setting [1] worked out at 3.4 ± 0.21 and the protein stability index under setting [2] worked out at 3.19 ± 0.31. The like results for TDKQPLSDAWTYCISKNEWIQFNH [KLHDC2] were, in that order, 2.5 ± 0.2 and 2.67 ± 0.27. The like results for TDRRSFHEVREFKQLIYRVRRTDD [RIT1] were, in that order, 3.03 ± 0.085 and 3.12 ± 0.14. Taken in the same sequence, the figures for TEGGNDDSDFRELHTAREFSEEDE [RTN2] were 5.42 ± 0.36 and 5.13 ± 0.71. In the case of TELLAERFYYQALSVAPQIGMPFN [SMG5], the protein stability index by setting is: under setting [1], 2.21 ± 0.34; under setting [2], 2.16 ± 0.17. With TEMELLEVSQHIKMRMGGRVDFEE [CABP4], the protein stability index reads like this: under setting [1], 4.11 ± 0.25; under setting [2], 4.08 ± 0.099. Regarding TEQAAEYVPEKVKKAEKKLEENPY [CSTF3], the protein stability index turned out to be 5.52 ± 0.3 under setting [1] and 5.37 ± 0.14 under setting [2]. The like results for TFDAITTIRGEVMFFKDRFYMRTN [MMP1] were, in that order, 2.25 ± 0.41 and 2.07 ± 0.19. TFKSLSHIDPDVLYPSLNVTSFDS [ALG2]: the protein stability index by setting is: under setting [1], 2.77 ± 0.14; under setting [2], 2.92 ± 0.19. The like results for TGITLLRVKFKSQQHRQGRSHHLE [PTGFR] were, in that order, 2.24 ± 0.29 and 2.44 ± 0.34. The like results for TGRHYWEVDVQEAGAGWWVGAAYA [TRIM14] were, in that order, 2.62 ± 0.8 and 2.58 ± 0.82. In the case of TGSKEKGLTKKRTKVQKKSLLLKK [NOP53], the protein stability index is 4.48 ± 0.24 under setting [1] and 4.72 ± 0.22 under setting [2].

Take TGTYQRAILQNHTDFKDKIVLDVG [CARM1]: the protein stability index is, setting by setting: under setting [1], 3.34 ± 0.092; under setting [2], 3.35 ± 0.27. With THHKLCTFILKNPPENSDSGTGKK [EIF5], the protein stability index by setting is: under setting [1], 3.95 ± 0.27; under setting [2], 4.28 ± 0.18. Sequence THNIAHGSLGFEPVYVSCIAQDTC [SPAG8] showed a protein stability index under setting [1] of 2.69 ± 0.14 and a protein stability index under setting [2] of 2.64 ± 0.2. With TIMQAVSQIRLNREHKETCEMDWS [TEKT4], the protein stability index by setting is: under setting [1], 2.3 ± 0.27; under setting [2], 2.44 ± 0.21. The like results for TKAGHSLELIEPLIKFQVGLKKLN [VDR] were, in that order, 2.19 ± 0.38 and 2.42 ± 0.25.

TKLEERSRVKCDQYWPSRGTETHG [PTPRD]: the protein stability index reads like this: under setting [1], 3.97 ± 0.14; under setting [2], 3.71 ± 0.54. Taken in the same sequence, the figures for TLFKKIQALQKEKETLAVNYEKEE [CCDC6] were 3.52 ± 0.27 and 3.35 ± 0.086. Consider TLGGLNPSPSEVITPWTPSPSEKN [SMTNL2], for which the protein stability index by setting is: under setting [1], 5.21 ± 0.25; under setting [2], 5.08 ± 0.14. Taken in the same sequence, the figures for TLREITDQEHNVAALKQAIKDKEA [TEKT4] were 4.92 ± 0.27 and 4.88 ± 0.26. Taken in the same sequence, the figures for TMAQHAEVLVKSNNLTDRIVVIPG [CARM1] were 3.08 ± 0.22 and 3.36 ± 0.23. Taken in the same sequence, the figures for TMRYINGLDPEPLPLMDLCRRSIR [SPSB4] were 3.31 ± 0.36 and 3.42 ± 0.3.

TNSSSLRLPRQNSDGGQKNKPREH [WSB1] yielded a protein stability index under setting [1] of 5.02 ± 0.15 and a protein stability index under setting [2] of 4.93 ± 0.072. The like results for TNVESQLAEIRCDLERQNQEYQVL [KRT34] were, in that order, 4.32 ± 0.21 and 4.27 ± 0.17. Take TPLLAASVTGHTNIVEYLIQEQPG [FEM1A]: the protein stability index by setting is: under setting [1], 3.39 ± 0.17; under setting [2], 3.67 ± 0.32. Taken in the same sequence, the figures for TPMNHQKAVNDETCKASHITSSVF [FBXO34] were 3.75 ± 0.075 and 3.77 ± 0.1.
